The source of these data is patent US20150010575A1 (SAMSUNG ELECTRONICS, published 2015).

The assay concerns the target T1, human c-Met/Fc fusion protein (R&D Systems) (human, UniProt P08581 25-932).
T1 construct: Bought from R&D Systems; Coated on microtiter plates at 2 ug/mL; also called human c-Met/Fc protein; not shown: Fc part of the bought fusion protein; not described
The assay is described as follows: ELISA, human c-Met/Fc coated at 2 ug/mL, hybridoma culture, anti-mouse IgG-HRP. On the procedure:
Human c-Met/Fc fusion protein was seeded in an amount of 50 μL (2 μg/mL)/well to microtiter plates and allowed to adhere to the surface of each well. The antibody that remained unbound was removed by washing.
The hybridoma cell culture obtained in Reference Example 1.1.2 was added in an amount of 50 μL to each well of the plates and incubated for 1 hour. The cells remaining unreacted were washed out with a sufficient amount of Tris-buffered saline and Tween 20 (TBST). Goat anti-mouse IgG-horseradish peroxidase (HRP) was added to the plates and incubated for 1 hour at room temperature. The plates were washed with a sufficient amount of TBST, followed by reacting the peroxidase with a substrate (OPD). Absorbance at 450 nm was measured on an ELISA reader.

T1 sequence (P08581 25-932 limits assumed): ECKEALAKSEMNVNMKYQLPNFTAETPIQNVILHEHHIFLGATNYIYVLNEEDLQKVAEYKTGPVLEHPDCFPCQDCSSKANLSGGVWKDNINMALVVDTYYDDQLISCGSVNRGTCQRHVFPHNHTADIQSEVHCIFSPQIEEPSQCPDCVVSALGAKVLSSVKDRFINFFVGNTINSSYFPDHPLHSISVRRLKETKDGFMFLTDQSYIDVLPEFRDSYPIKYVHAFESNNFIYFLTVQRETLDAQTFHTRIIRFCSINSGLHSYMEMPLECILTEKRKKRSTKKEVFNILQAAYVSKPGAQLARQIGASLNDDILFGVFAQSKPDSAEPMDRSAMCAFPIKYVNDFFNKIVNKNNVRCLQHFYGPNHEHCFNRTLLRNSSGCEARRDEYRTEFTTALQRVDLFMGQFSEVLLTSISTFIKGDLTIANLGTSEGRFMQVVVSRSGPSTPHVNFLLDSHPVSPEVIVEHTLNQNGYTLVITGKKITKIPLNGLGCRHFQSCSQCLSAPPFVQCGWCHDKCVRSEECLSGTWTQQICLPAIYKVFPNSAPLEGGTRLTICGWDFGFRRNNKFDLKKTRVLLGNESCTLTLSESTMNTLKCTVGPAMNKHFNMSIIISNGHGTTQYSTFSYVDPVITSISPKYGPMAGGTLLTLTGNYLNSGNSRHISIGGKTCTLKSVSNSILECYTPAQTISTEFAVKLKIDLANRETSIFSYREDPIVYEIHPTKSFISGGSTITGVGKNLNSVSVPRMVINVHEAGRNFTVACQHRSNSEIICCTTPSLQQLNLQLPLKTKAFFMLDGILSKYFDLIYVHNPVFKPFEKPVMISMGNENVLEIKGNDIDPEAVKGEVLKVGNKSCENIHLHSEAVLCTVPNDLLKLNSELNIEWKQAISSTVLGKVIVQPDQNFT

B1: AbF46, a mouse antibody to c-Met (antibody, V domains shown)
VH: EVKLVESGGGLVQPGGSLRLSCATSGFTFTDYYMSWVRQPPGKALEWLGFIRNKANGYTTEYSASVKGRFTISRDNSQSILYLQMDTLRAEDSATYYCARDNWFAYWGQGTLVTVSA
VL: DILMTQSPSSLTVSAGEKVTMSCKSSQSLLASGNQNNYLAWHQQKPGRSPKMLIIWASTRVSGVPDRFIGSGSGTDFTLTINSVQAEDLAVYYCQQSYSAPLTFGAGTKLELK
notes: Mouse monoclonal antibody, tested as hybridoma culture supernatant in the selection ELISA; also called monoclonal antibody of hybridoma KCLRF-BP-00220
As for B1, the binding result was “binds”.
